In test [1] the target is biotinylated human CCN2 (human) (UniProt P29279). The experiment in a line: competition electrochemiluminescence assay.
In test [2] the target is Human CCN2 tagged with human Fc (human) (UniProt P29279). The experiment in a line: SPR. In general terms: SPR reads the build-up and loss of mass on a sensor chip optically.
For the next test, the target named is recombinant CCN2 (UniProt P29279). The experiment in a line: ELISA. Background: ELISA stands for enzyme-linked immunosorbent assay.
Sequence of recombinant CCN2 (P29279 27-349): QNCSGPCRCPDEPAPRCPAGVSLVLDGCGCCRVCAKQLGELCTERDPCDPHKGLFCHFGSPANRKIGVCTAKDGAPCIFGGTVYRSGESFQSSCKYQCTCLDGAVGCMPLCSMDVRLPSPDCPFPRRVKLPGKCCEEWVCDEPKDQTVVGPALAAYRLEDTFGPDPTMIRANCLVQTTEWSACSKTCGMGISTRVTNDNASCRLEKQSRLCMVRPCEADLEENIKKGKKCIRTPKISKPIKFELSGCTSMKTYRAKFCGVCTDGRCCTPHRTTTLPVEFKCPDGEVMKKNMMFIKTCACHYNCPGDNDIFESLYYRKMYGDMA
Test [3] addresses human CCN2 (R&D Systems) (human) (UniProt P29279). The experiment in a line: electrochemiluminescence assay.
For the next test, the target named is biotinylated human CCN2 (Homo sapiens, UniProt P29279, biotin (sites not given)). The experiment in a line: competition electrochemiluminescence assay.
Sequence of biotinylated human CCN2 (P29279 27-349): as above

Sequence of Human CCN2 tagged with human Fc (human) (P29279 27-349): as above
Sequence of biotinylated human CCN2 (human) (P29279 27-349): as above
Sequence of human CCN2 (R&D Systems) (human) (P29279 27-349): as above

Regarding PRS-220 (designed binder), the IC50 in test [1] is 0.35 nM. Moreover, in test [2], the Kd is 0.06 nM, the fold higher affinity than pamrevlumab came to 364 fold and the fold slower dissociation than pamrevlumab was found to be 169 fold. Also, the EC50 in the test with recombinant CCN2 was 0.39 nM. Besides, the relative potency [%], post-nebulization in test [3] worked out at 100%.

B1: pamrevlumab (antibody, V domains shown)
VH: EGQLVQSGGGLVHPGGSLRLSCAGSGFTFSSYGMHWVRQAPGKGLEWVSGIGTGGGTYSTDSVKGRFTISRDNAKNSLYLQMNSLRAEDMAVYYCARGDYYGSGSFFDCWGQGTLVTVSS
VL: DIQMTQSPSSLSASVGDRVTITCRASQGISSWLAWYQQKPEKAPKSLIYAASSLQSGVPSRFSGSGSGTDFTLTISSLQPEDFATYYCQQYNSYPPTFGQGTKLEIK
In the test with biotinylated human CCN2, B1 yielded an IC50 of 1.14 nM.

As a reminder, the IC50 is the concentration at which inhibition is half-maximal. Read a high IC50 as weaker potency in that assay. The Kd is the constant that tells how readily two partners part at equilibrium. A high value points to weaker binding. Broadly, the EC50 is the concentration at which the effect is half-maximal.
